From patent publication US20140050743A1, “BINDING PROTEINS TO INHIBITORS OF COAGULATION FACTORS” (BAYER INTELLECTUAL PROPERTY GMBH, priority 2011, published 2014) come the findings set out here.

Changes are numbered by the printed parent chain.

The labels stand for the following.
B1: M14-G07-3: antibody, Vh SEQ ID NO: 131, Vl SEQ ID NO: 132 (antibody, listed as Homo Sapiens, V domains shown)
VH: EVQLLESGGGLVQPGGSLRLSCAASGFTFSSYAMSWVRQAPGKGLEWVSGISGSGGSTYYADSVKGRFTISRDNSKNTLYLQMNSLRAEDTAVYYCARQGRTSFYLDVWGQGTLVTVSS
VL: QSVLTQPPSASGTPGQRVTISCSGSSRNIGSYYVYWYQQLPGTAPKLLIYDNRQRPSGVPDRFSGSKSGTSASLAISGLRSEDEADYYCVAWDDSWSGTWVFGGGTKLTVL
B2: M14-G07-5: antibody, Vh SEQ ID NO: 135, Vl SEQ ID NO: 136 (antibody, listed as Homo Sapiens, V domains shown)
VH: B1 VH with T28R
VL: B1 VL with W96Y
B3: M14-G07-11: antibody, Vh SEQ ID NO: 147, Vl SEQ ID NO: 148 (antibody, listed as Homo Sapiens, V domains shown)
VH: B1 VH with T28R, S49G
VL: B1 VL with S31A, Y32F, T99H
B4: M14-G07-12: antibody, Vh SEQ ID NO: 149, Vl SEQ ID NO: 150 (antibody, listed as Homo Sapiens, V domains shown)
VH: B1 VH
VL: B1 VL with R53N
B5: M14-G07-9: antibody, Vh SEQ ID NO: 143, Vl SEQ ID NO: 144 (antibody, listed as Homo Sapiens, V domains shown)
VH: B1 VH with T28R, S49G
VL: B1 VL with Y32F, R53N, D94V, W96L, T99H
B6: M14-G07-6: antibody, Vh SEQ ID NO: 137, Vl SEQ ID NO: 138 (antibody, listed as Homo Sapiens, V domains shown)
VH: B1 VH with T28R, V37I, S49G
VL: B1 VL with W96Y
B7: M14-G07-7: antibody, Vh SEQ ID NO: 139, Vl SEQ ID NO: 140 (antibody, listed as Homo Sapiens, V domains shown)
VH: B1 VH with T28R, S49G
VL: B1 VL with R53N, T99H
B8: M14-G07-13: antibody, Vh SEQ ID NO: 151, Vl SEQ ID NO: 152 (antibody, listed as Homo Sapiens, V domains shown)
VH: B1 VH with S49G
VL: B1 VL with Y32F
B9: M14-G07-4: antibody, Vh SEQ ID NO: 133, Vl SEQ ID NO: 134 (antibody, listed as Homo Sapiens, V domains shown)
VH: B1 VH with T28R, S49G
VL: B1 VL with S31A, W96Y
B10: M14-G07-8: antibody, Vh SEQ ID NO: 141, Vl SEQ ID NO: 142 (antibody, listed as Homo Sapiens, V domains shown)
VH: B1 VH with S49G
VL: B1 VL with S31A, Y32F, W96Y
B11: M14-G07-10: antibody, Vh SEQ ID NO: 145, Vl SEQ ID NO: 146 (antibody, listed as Homo Sapiens, V domains shown)
VH: B1 VH with S49G
VL: B1 VL with Y32F, R53N, T99H
B12: M14-G07-14: antibody, Vh SEQ ID NO: 153, Vl SEQ ID NO: 154 (antibody, listed as Homo Sapiens, V domains shown)
VH: B1 VH with S49G
VL: B1 VL with W96Y

The nature of the assay: ELISA-based activity assay of antibody variants without a competition step. Particulars: Table 10, multiple substitutions within M14-G07, variant to reference ratio (reference 2-fold improved over wt). More on the design: key: +++: Variants with an average ratio above reference plus 2×SD; +/−: variants with a ratio below reference minus 2×SD; ++: All variants with a performance in between both thresholds; −: Variants with a ratio below 0.5. Format: binding. The method, then: To determine the activity of the mutated antibody variants on compound from Example 1K an equilibrium or dissociation limited ELISA assay format was used. Briefly, MTP plates (Nunc Maxisorp black, 460518) were coated with 4 μg/ml streptavidin (Calbiochem, 189730) diluted in coating buffer (Candor Bioscience GmbH, 121500) and incubated over night at 4° C. After washing with PBST, plates were blocked with 100% Smart Block (Candor Bioscience GmbH, 113500) in PBST for 1 h at room temperature and the washing step was repeated. Plates were incubated with compound from Example 1K at varying concentrations (0.3-200 nM) for 1 h at 37° C., washed with PBST and antibody fragments were immobilized by adding 25 μl of the crude bacterial cultures for 1 h at room temperature. After washing with PBST a competition step or the immediate detection was performed. […] For the detection of the residually bound Fabs a HRP-coupled anti-lambda antibody (Sigma, A5175) diluted in 10% Smart Block in PBST was added for 1 h at room temperature. After washing 10 μM Amplex Red (Invitrogen, A12222) were added and incubated for 10 to 30 min at room temperature followed by measurement of the fluorescence signal.
Provided in Table 9 are several examples of single and/or double amino acid substitutions introduced into the heavy and/or the light chain of M14-G07 (wt). Performance of the variants was analyzed in quadruples in the ELISA without a competition step and the FXa deinhibition assay (FXa DIA). In the ELISA, averages were calculated and normalized to the respective average expression level. Overall performance of variants was evaluated by comparing the variant to wt ratio from 2-3 independent experiments. Variants with an average ratio above wt plus 2×SD (standard deviation of the ratio) were considered as improved and are marked with “++”, whereas variants with a ratio below wt minus 2×SD were considered as reduced in their binding affinity and are marked with “−”. All variants with a performance in between both thresholds are marked with “+/−”. Variants with average fluorescence counts below the negative control (non-expressing cells) plus 3×SD were considered as non-binding and marked with “−−” with none of the variants fulfilling this criteria. In the FXa deinhibition assay averages were calculated and overall performance of variants was evaluated by comparing the variant to wt ratio from 2-3 independent experiments. Variants with an average ratio above wt plus 2×SD were considered as improved and are marked with “++”, whereas variants with a ratio below wt minus 2×SD were considered as either reduced in their binding affinity or non-binding and are marked with “−−”. All variants with a performance in between both thresholds are marked with “+/−”. Variants not analyzed are marked with “nd” (not determined). CDRs were defined according to Kabat.
Provided in Table 10 are examples of combined amino acid substitutions within M14-G07 antibodies. While not every combination is provided in Table 10, it is contemplated that the anti-rivaroxaban antibody may comprise any combination of modifications provided. Variant performance was analyzed in quadruples in the ELISA without a competition step. Averages were calculated, average background signals determined on a streptavidin coated plate without compound from Example 1K were subtracted if the compound from Example 1K concentration used for coating was below 10 nM and signals were normalized to the respective average expression level. Overall performance of variants was evaluated by comparing the variant to reference ratio from 2-3 independent experiments using a 2-fold improved reference variant as compared to wt. Variants with an average ratio above reference plus 2×SD are marked with “+++”, whereas variants with a ratio below reference minus 2×SD are marked with “+/−”. All variants with a performance in between both thresholds are marked with “++”. […]
For B1, the ELISA result is on record as “+++”.

B2: the ELISA result is on record as “+++”.

Consider B3, for which the ELISA result was “+++”.

With B4, the ELISA entry is listed as “+++”.

For B5, the ELISA result is given as “+++”.

On to B6, for which the ELISA result was “+++”.

As for B7, the ELISA entry is recorded as “+++”.

With B8, the ELISA entry is reported as “+++”.

Regarding B9, the ELISA result is “+++”.

With B10, the ELISA entry was “+++”.

For B11, the ELISA entry is on record as “+++”.

For B12, the ELISA entry is recorded as “+++”.
